{"source": "patent US11160869B2", "about": "(priority 2019, dated 2021)", "molecules": {"B1": {"name": "IL-10 delivery construct: recombinant homodimeric fusion protein: N-terminal methionine, cholix386 domain, polyGlySer spacer, recombinant human IL-10 (protein)", "chain": "MVEEALNIFDECRSPCSLTPEPGKPIQSKLSIPSDVVLDEGVLYYSMTINDEQNDIKDEDKGESIITIGEFATVRATRHYVNQDAPFGVIHLDITTENGTKTYSYNRKEGEFAINWLVPIGEDSPASIKISVDELDQQRNIIEVPKLYSIDLDNQTLEQWKTQGNVSFSVTRPEHNIAISWPSVSYKAAQKEGSRHKRWAHWHTGLALCWLVPMDAIYNYITQQNCTLGDNWFGGSYETVAGTPKVITVKQGIEQKPVEQRIHFSKGNAMSALAAHRVCGVPLETLARSRKPRDLTDDLSCAYQAQNIVSLFVATRILFSHLDSVFTLNLDEQEPEVAERLSDLRRINENNPGMVTQVLTVARQIYNDYVTHHPGLTPEQTSAGAQAGGGGSGGGGSGGGGSPGQGTQSENSCTHFPGNLPNMLRDLRDAFSRVKTFFQMKDQLDNLLLKESLLEDFKGYLGCQALSEMIQFYLEEVMPQAENQDPDIKAHVNSLGENLKTLRLRLRRCHRFLPCENKSKAVEQVKNAFNKLQEKGIYKAMSEFDIFINYIEAYMTMKIRN", "modifications": "homodimer"}}, "key": {"[1]": {"system": "polarized gut epithelial cells", "experiment": "In vivo transcytosis across polarized gut epithelial cells, rat jejunum, microscopy", "design": "species or system Wistar rats", "details": "luminal application to rat jejunum", "description": "In vivo transcytosis was tested using male Wistar rats. Male Wistar rats were housed 3-5 per cage with a 12/12 h light/dark cycle and were about 225-275 g (approximately 6-8 weeks old) when placed on study. Experiments were conducted during the light phase using a non-recovery protocol that uses continuous isoflurane anesthesia. A 4-5 cm midline abdominal incision that exposed mid-jejunum regions was conducted. Stock solutions at 3.86×10^−5 M of delivery construct were prepared in phosphate buffered saline (PBS), with 50 μL (per 250 g rat) being administered by intraluminal injection (ILI) using a 29-gauge needle. The injection site mesentery was then marked with a permanent marker. […]\nThe delivery construct (SEQ ID NO: 5) included the cholix carrier with SEQ ID NO: 4 (and further including an N-terminal methionine) coupled to the IL-10 payload having an amino acid set forth in SEQ ID NO: 2 via a spacer having an amino acid set forth in SEQ ID NO: 6. Green fluorescence indicates the presence of IL-10 (via staining with an anti-IL-10 antibody). Blue fluorescence indicates DAPI staining, which labels DNA, and red fluorescence indicates the presence of CK-8 (cytokeratin-8) with which a cholix-derived carrier can co-localize (e.g., in a supranuclear region of an epithelial cell) during transcytosis. […]"}, "IL-1Ra": {"system": "IL-1Ra", "experiment": "Systemic IL-1Ra in non-inflamed mice (ELISA MSD)", "type": "in vivo", "details": "construct 10 mg/kg; rhIL-10 3 mg/kg; oral"}, "[2]": {"experiment": "Oral gavage 10 mg/kg in non-inflamed mice: hIL-10 in serum and tissue, serum IL-1Ra", "type": "in vivo"}, "[3]": {"experiment": "PK/PD by route (oral, subcutaneous, intravenous) in NHP", "type": "in vivo, Macaca fascicularis", "text": "For oral administration the IL-10 delivery construct was formulated in size 0 enteric coated capsules. For intravenous or subcutaneous administration it was formulated as a liquid in DS lyo formulation."}, "STAT3 [4]": {"system": "STAT3", "experiment": "pSTAT3 induction and hIL-10 in intestinal tissue 40 min after oral gavage, immunofluorescence and image analysis", "type": "in vivo, rat", "details": "40 min post oral gavage", "description": "This observation is consistent with findings in mice that intestinal epithelial cells can express IL-10 receptors at their apical surface under certain conditions associated with development and maintenance of barrier function. […] In order to quantify how test articles affected intestinal IL-10 signal transduction pathways, image analysis was performed: high-throughput image batches were collected, segmented by epithelial versus lamina propria localization, and then by cellular features."}, "[5]": {"experiment": "Lyophilization buffer screens: HMW/dimer/monomer by SE-HPLC before and after lyophilization", "type": "physicochemical", "description": "Size exclusion chromatography (SE-HPLC) can be used to characterize the size distribution of the IL-10 delivery construct. The percentage of IL-10 delivery construct found in dimer, monomer, and aggregate forms in a liquid composition or a lyophilized composition if reconstituted in a liquid can be determined by SEC-HPLC (FIG. 34).\nFurther testing based on the results from the initial liquid formulation screen, initial lyophilization feasibility studies were conducted using the conditions in TABLE 9. Glycine and mannitol, known to be useful in the lyophilization of proteins as […] bulking agents were added to this screen, histidine at pH 7.0 added to provide a more granular evaluation of the effect of pH in the 7.0-7.5 range, and trehalose was added as an option to sucrose as an osmolyte. FIGS. 21 and 22 show the percentage of target constructs in the dimer form before and after incubation at 25° C. for 3 days (FIG. 21) and before and after 5 freeze/thaw cycles (FIG. 22).\nBased on the results from this initial study a second lyophilization screen was conducted using the formulations listed in TABLE 10."}, "STAT3 [6]": {"system": "STAT3", "experiment": "pSTAT3/total STAT3 in colon tissue of non-inflamed mice (ELISA MSD)", "type": "in vivo", "details": "construct 1 mg/kg; rhIL-10 0.9 mg/kg; oral"}, "colonic tissue": {"system": "colonic tissue", "experiment": "Pan-colonic administration in NHP: colonic biopsies (IL-10, IL-1Ra, pSTAT3/STAT3, cytokines, gene expression)", "type": "in vivo, cynomolgus monkeys", "description": "(§1) IL-10 delivery construct solution (at concentrations of 0.1, 0.3 and 1.0 mg/mL for the low, mid and high-dose groups respectively) was administered via the rectal route using sigmoidoscopy and a syringe connected to a spray nozzle with a 360° spray pattern. Serial biopsy samples were collected by sigmoidoscopy (pre-dose, 0.25, 0.5, 0.75, 8 and 24-28 hours post dose). Serial plasma samples from 0 min pre-dose to between 24-28 hours post-dose were collected for analysis for the IL-10 delivery construct.\nPhosphorylation of STAT3 is an early downstream event following IL-10 receptor activation.\nColonic biopsies at each tissue timepoint were analyzed for local concentration of IL-10 delivery construct, total IL-10, IL-1Ra, soluble cytokines, activation of STAT3 and gene expression following administration of the IL-10 delivery construct. […] In addition, STC1, MTNR1A and VNN2 encode proteins that suppress the NFkβ signaling pathway, a pathway through which key pro-inflammatory cytokines are regulated. […] This is consistent with the ability of IL-10 to suppress these cells' activation or differentiation towards a pro-inflammatory immune phenotype."}, "IL-1Ra, IL-1β": {"system": "IL-1Ra, IL-1β", "experiment": "RT-PCR of IL-1Ra and IL-1β in near-distal colon", "type": "in vivo, mice", "details": "9 mg/kg"}, "human SMI-100 monolayers": {"system": "human SMI-100 monolayers", "experiment": "Transport across polarized human small intestinal cell monolayers (SMI-100), western blot", "details": "apical to basal, 2 hr"}, "[7]": {"experiment": "Pan-colonic administration via sigmoidoscopy in NHP: plasma PK and PD", "type": "in vivo, cynomolgus monkeys", "description": "as §1"}, "[8]": {"details": "secondary formulation buffer screen, 0.3% Poloxamer"}}, "data": [{"molecule": "B1", "values": [{"measurement": "earliest time of IL-10 payload transport into the lamina propria", "setting": "[1]", "result": "≤ 1", "unit": "min"}, {"measurement": "increase of systemic IL-1Ra", "setting": "IL-1Ra", "result": "about 3 fold"}, {"measurement": "onset of IL-1Ra induction", "setting": "[2]; 10 mg/kg", "result": "2.5-4 h post oral gavage"}, {"measurement": "hIL-10 in small intestinal lysates relative to colonic lysates", "setting": "[2]; 10 mg/kg oral gavage", "result": "~10", "unit": "fold higher"}, {"measurement": "serum IL-1Ra levels", "setting": "[2]; 10 mg/kg oral gavage, 4 h", "result": "significantly increased"}, {"measurement": "systemic levels of IL-10 after oral treatment", "setting": "[3]; oral 1 mg or 5 mgs vs SC 0.2 mg/kg, IV 0.05 mg/kg", "result": "minimal systemic levels of IL-10"}, {"measurement": "IL-1Ra/IL-1β ratio", "setting": "[3]; subcutaneous or intravenous administration", "result": "minimal effect"}, {"measurement": "hIL-10 and pSTAT3 in intestinal tissue", "setting": "STAT3 [4]", "result": "extensive amounts of hIL-10 and a large number of cells that were positive for pSTAT3 within the lamina propria"}, {"measurement": "stability with respect to aggregation", "setting": "[5]; initial lyophilization feasibility study, conditions of TABLE 9", "result": "more stable at pH7.5 with sucrose and glycine"}, {"measurement": "Pre-Lyophilization (%) Dimer", "setting": "[5]; [8]", "result": 89.2, "unit": "%"}, {"measurement": "Pre-Lyophilization (%) HMW", "setting": "[5]; [8]", "result": 2.6, "unit": "%"}, {"measurement": "Pre-Lyophilization (%) Monomer", "setting": "[5]; [8]", "result": 8.2, "unit": "%"}, {"measurement": "increase in ratio of pSTAT3 to total STAT3", "setting": "STAT3 [6]", "result": "approximately 50%"}, {"measurement": "IL-1Ra concentration in colonic tissue", "setting": "colonic tissue; 1, 3, 10 mg", "result": "not further augmented"}, {"measurement": "total IL-10 in colonic tissue", "setting": "colonic tissue; 1, 3, 10 mg", "result": "dose-dependent increase in total IL-10"}, {"measurement": "colonic MMP1, MMP3, MMP19", "setting": "colonic tissue; 8 h", "result": "also upregulated"}, {"measurement": "colonic TIMP1, tissue repair and anti-microbial genes", "setting": "colonic tissue; 8 h", "result": "also increased"}, {"measurement": "colonic anti-inflammatory genes (CD163, miR24-2, NOX1 ...)", "setting": "colonic tissue; 8 h", "result": "upregulated a number of anti-inflammatory genes"}, {"measurement": "colonic pro-inflammatory genes (MHCII, PLA2G2D, CCL20, CCL13)", "setting": "colonic tissue; 8 h", "result": "decreased a number of pro-inflammatory genes"}, {"measurement": "colonic expression of CYP1A1", "setting": "colonic tissue; 8 h, 12-hour fast prior to treatment", "result": "downregulated"}, {"measurement": "colonic tissue pSTAT3/STAT3", "setting": "colonic tissue; all doses tested", "result": "Higher ratios of colonic tissue pSTAT3/STAT3"}, {"measurement": "induction of pro-inflammatory cytokines in colonic tissue", "setting": "colonic tissue; cynomolgus monkey, in vivo", "result": "not observed"}, {"measurement": "time of peak total IL-10 in colonic tissue", "setting": "colonic tissue; first sampling time point", "result": 15, "unit": "min"}, {"measurement": "IL-1Ra/IL-1β mRNA ratio in colonic tissue", "setting": "IL-1Ra, IL-1β", "result": "increase"}, {"measurement": "mRNA expression of IL-1Ra in near-distal colonic tissue", "setting": "IL-1Ra, IL-1β", "result": "trend towards augmented mRNA expression of IL-1Ra"}, {"measurement": "transport across monolayers relative to rhIL-10", "setting": "human SMI-100 monolayers", "result": "to a greater extent"}, {"measurement": "plasma IL-10 delivery construct concentration relative to IL-10", "setting": "[7]; 3 mg and 10 mg doses", "result": 10, "unit": "fold lower"}, {"measurement": "systemic IFN-γ, IL-1β, IL-2, IL-8", "setting": "[7]; 1, 3, 10 mg", "result": "did not lead to an increase"}, {"measurement": "plasma IL-1Ra", "setting": "[7]; 1, 3 and 10 mg", "result": "induction of the plasma concentration of IL-1Ra was observed at all three doses"}, {"measurement": "systemic IL-6", "setting": "[7]; 3 and 10 mg groups", "result": "moderately induced"}, {"measurement": "time of maximal plasma IL-1Ra concentration", "setting": "[7]; cynomolgus monkey, in vivo", "result": "3 to 4", "unit": "h"}, {"measurement": "time to detection of total IL-10 in plasma", "setting": "[7]; single dose 1, 3 or 10 mg pan-colonic", "result": "≤ 15", "unit": "min"}]}]}
